Assay results published in PMC3985303.

Target: Guinea pig soluble FcRn (guinea pig)
Assay: SPR

Row | Kd | Substance
1 | 5.2 µM | human IgG1 purified from myeloma (from UniProt P01857)
2 | 4.2 µM | human IgG2 purified from myeloma (from UniProt P01859)
3 | 6.8 µM | human IgG4 purified from myeloma (from UniProt P01861)
